Results as given in article doi:10.1101/209809 (bioRxiv, 2017).

Legend:
[1] = target: T1, CPSF-160;WDR33 (1-572);CPSF-30 (human;human;human, UniProt Q10570;Q9C0J8;O95639-2 1-1443;1-572;1-244, ||); assay: cryo-EM structure
[2] = target: T2, N-terminal region of human WDR33 (residues 1-572) (human, UniProt Q9C0J8 1-572); assay: cryo-EM structure
T2 sequence (looked up): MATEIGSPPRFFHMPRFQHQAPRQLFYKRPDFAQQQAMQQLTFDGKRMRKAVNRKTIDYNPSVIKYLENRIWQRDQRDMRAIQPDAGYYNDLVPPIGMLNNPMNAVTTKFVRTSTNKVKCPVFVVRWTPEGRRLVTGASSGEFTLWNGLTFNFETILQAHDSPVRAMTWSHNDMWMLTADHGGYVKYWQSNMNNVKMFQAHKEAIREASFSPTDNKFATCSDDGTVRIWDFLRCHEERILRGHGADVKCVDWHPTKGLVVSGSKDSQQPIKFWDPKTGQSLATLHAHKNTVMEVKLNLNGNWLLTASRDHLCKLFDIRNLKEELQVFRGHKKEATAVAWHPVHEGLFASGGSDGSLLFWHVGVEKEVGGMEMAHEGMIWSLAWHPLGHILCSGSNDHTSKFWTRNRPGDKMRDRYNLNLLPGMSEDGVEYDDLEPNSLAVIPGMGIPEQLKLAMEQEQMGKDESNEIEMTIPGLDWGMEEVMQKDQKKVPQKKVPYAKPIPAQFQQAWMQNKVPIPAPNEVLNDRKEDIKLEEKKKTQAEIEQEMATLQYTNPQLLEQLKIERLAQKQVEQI

[3] = target: CPSF-160–WDR33 binary complex (human, UniProt Q10570 1-1443; Q9C0J8 1-572); assay: cryo-EM structure
Chain of CPSF-160–WDR33 binary complex (Q10570 whole entry, one chain of several): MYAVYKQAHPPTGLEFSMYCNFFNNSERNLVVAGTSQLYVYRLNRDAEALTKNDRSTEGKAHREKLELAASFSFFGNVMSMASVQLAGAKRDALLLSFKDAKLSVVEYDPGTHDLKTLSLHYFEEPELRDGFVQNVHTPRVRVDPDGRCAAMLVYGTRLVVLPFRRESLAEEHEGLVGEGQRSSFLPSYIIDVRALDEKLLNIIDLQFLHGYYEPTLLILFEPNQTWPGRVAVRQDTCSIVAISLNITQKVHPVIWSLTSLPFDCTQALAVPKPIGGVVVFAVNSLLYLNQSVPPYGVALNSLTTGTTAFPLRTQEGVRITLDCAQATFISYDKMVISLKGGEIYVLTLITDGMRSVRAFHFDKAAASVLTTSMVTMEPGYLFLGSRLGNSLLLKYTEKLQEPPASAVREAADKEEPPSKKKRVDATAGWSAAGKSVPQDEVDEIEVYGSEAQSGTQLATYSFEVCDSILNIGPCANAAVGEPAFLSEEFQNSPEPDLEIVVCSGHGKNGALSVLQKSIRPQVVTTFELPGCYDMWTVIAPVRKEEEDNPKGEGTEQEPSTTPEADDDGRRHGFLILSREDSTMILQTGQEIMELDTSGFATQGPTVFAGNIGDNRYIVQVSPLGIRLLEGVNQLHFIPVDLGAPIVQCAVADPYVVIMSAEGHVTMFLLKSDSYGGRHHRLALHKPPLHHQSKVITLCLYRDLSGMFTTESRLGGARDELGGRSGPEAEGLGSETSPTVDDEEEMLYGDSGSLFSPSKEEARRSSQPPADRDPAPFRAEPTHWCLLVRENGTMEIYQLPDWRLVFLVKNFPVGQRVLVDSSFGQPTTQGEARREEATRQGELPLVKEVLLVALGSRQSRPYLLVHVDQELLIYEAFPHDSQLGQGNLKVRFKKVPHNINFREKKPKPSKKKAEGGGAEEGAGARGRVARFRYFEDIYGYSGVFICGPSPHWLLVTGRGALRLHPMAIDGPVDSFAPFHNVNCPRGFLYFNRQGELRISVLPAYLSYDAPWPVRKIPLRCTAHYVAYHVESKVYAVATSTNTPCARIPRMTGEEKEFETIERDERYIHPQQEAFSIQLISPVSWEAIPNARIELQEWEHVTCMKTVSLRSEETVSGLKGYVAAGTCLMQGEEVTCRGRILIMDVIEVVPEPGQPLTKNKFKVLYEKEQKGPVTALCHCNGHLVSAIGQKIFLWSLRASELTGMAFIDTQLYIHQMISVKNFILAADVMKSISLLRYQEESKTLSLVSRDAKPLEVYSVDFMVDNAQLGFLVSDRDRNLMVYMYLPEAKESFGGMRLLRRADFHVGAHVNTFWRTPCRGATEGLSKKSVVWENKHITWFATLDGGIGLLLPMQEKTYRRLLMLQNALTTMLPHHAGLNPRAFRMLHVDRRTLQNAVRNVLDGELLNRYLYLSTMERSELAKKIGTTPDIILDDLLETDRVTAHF

[4] = target: T1, CPSF-160;WDR33 (1-572);CPSF-30; assay: EMSA
[5] = target: CPSF-160;WDR33 (1-572);MBP-CPSF-30(33-170) (human;human;human, UniProt Q10570;Q9C0J8;O95639-2 1-1443;1-572;33-170, ||); assay: EMSA
Chain of CPSF-160;WDR33 (1-572);MBP-CPSF-30(33-170) (Q10570 whole entry, chain 1 of 2, one chain of several): as the sequence (Q10570 whole entry, one chain of several) above

T1 sequence (Q10570 whole entry, the tested form may be a part, one chain of several): as the sequence (Q10570 whole entry, one chain of several) above

AACCUCCAAUAAACAAC (ssRNA) [17-mer PAS RNA, unlabeled (EM)]
binding result [1]: binds

B1: full-length human CPSF-30 (isoform 2), MBP removed by TEV protease (natural protein, UniProt O95639-2 1-244, looked up)
chain: MQEIIASVDHIKFDLEIAVEQQLGAQPLPFPGMDKSGAAVCEFFLKAACGKGGMCPFRHISGEKTVVCKHWLRGLCKKGDQCEFLHEYDMTKMPECYFYSKFGECSNKECPFLHIDPESKIKDCPWYDRGFCKHGPLCRHRHTRRVICVNYLVGFCPEGPSCKFMHPRFELPMGTTEQPPLPQQTQPPAKQRTPQVIGVMQSQNSSAGNRGPRPLEQVTCYKCGEKGHYANRCTKGHLAFLSGQ
binding result [2]: binds
binding result [3]: binds

AACCUCCAAUAAACAAC (ssRNA) [17-mer PAS RNA (AAUAAA)]
binding result [4]: binds
binding result [5]: binds
